Results reported in US20150344570A1 (published 2015).

T1: FcgRIIaR (human, UniProt P12318 34-217)
T1 construct: extracellular domain; also called FcγRIIa R; FcγRIIa type R; not shown: His tag at the C terminus
T1 sequence (looked up): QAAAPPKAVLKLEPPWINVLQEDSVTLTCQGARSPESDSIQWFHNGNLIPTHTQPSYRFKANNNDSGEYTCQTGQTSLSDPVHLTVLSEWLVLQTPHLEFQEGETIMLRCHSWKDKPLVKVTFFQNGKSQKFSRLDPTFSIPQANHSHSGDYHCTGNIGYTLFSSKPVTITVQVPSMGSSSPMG

T2: FcgRIIb (human, UniProt P31994 43-217)
T2 construct: extracellular domain; also called FcγRIIb; 2b; not shown: His tag at the C terminus
T2 sequence (looked up): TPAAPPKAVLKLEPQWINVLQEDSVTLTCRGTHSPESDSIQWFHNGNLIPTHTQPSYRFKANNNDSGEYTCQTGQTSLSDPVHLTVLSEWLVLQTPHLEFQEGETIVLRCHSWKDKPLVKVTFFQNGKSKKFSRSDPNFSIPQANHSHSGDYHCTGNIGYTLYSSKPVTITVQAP

T3: FcgRIIaH (human, UniProt P12318 34-217)
T3 construct: extracellular domain; also called FcγRIIa H; FcγRIIa type H; not shown: His tag at the C terminus
T3 sequence (looked up): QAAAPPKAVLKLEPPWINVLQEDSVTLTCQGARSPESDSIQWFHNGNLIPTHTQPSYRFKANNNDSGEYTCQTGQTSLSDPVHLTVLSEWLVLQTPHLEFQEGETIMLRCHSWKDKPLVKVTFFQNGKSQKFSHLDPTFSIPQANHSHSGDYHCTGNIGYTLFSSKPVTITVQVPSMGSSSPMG

B1: H240-Kn125/H240-Hl210/L73-k0 (antibody, human IgG1, kappa)
heavy 1: QDQLVQSGAEVKKPGASVKVSCKASGFNIKDTYIQWVRQAPGQGLEWMGRIDPLRKQTKYREKFEGRVTITADTSTNTAYMELSSLRSEDTAVYYCVRSGREFDYWGQGTLVTVSSASTKGPSVFPLAPSSKSTSGGTAALGCLVKDYFPEPVTVSWNSGALTSGVHTFPAVLQSSGLYSLSSVVTVPSSSLGTQTYICNVNHKPSNTKVDKKVEPKSCDKTHTCPPCPAPEYQWGPMVFLFPPKPKDTLMISRTPEVTCVVVDVSDEEPEVKFNWYVDGVEVHNAKTKPREEQYNATYRVVSVLTVLHQDWLNGKEYKCKVSNKALPAPIEKTISKAKGQPREPQVCTLPPSRDELTKNQVSLWCLVKGFYPSDIAVEWESNGQPENNYKTTPPVLDSDGSFFLYSKLTVDKSRWQQGNVFSCSVMHEALHNHYTQKSLSLSP
heavy 2: QDQLVQSGAEVKKPGASVKVSCKASGFNIKDTYIQWVRQAPGQGLEWMGRIDPLRKQTKYREKFEGRVTITADTSTNTAYMELSSLRSEDTAVYYCVRSGREFDYWGQGTLVTVSSASTKGPSVFPLAPSSKSTSGGTAALGCLVKDYFPEPVTVSWNSGALTSGVHTFPAVLQSSGLYSLSSVVTVPSSSLGTQTYICNVNHKPSNTKVDKKVEPKSCDKTHTCPPCPAPELLGGPSVFLFPPKPKDTLMISRTPEVTCVVVDVSHEEPEVKFNWYVDGVEVHNAKTKPREEQYNSTYRVVSVLTVLHQDWLNGKEYKCKVSNDALPAPIEETISKAKGQPREPQVYTLPPSRCELTKNQVSLSCAVKGFYPSDIAVEWESNGQPENNYKTTPPVLDSDGSFFLVSKLTVDKSRWQQGNVFSCSVMHEALHNHYTQKSLSLSP
light: DIQMTQSPSSLSASVGDRVTITCRASQDIHKYIAWYQQKPGQAPRLLIQYTSTLQPGVPSRFSGSGSGTDYTFTISSLQPEDIATYYCLQYEQLRTFGGGTKVEIKRTVAAPSVFIFPPSDEQLKSGTASVVCLLNNFYPREAKVQWKVDNALQSGNSQESVTEQDSKDSTYSLSSTLTLSKADYEKHKVYACEVTHQGLSSPVTKSFNRGEC
B2: H240-Kn125/H240-Hl214/L73-k0 (antibody, human IgG1, kappa)
heavy 1: QDQLVQSGAEVKKPGASVKVSCKASGFNIKDTYIQWVRQAPGQGLEWMGRIDPLRKQTKYREKFEGRVTITADTSTNTAYMELSSLRSEDTAVYYCVRSGREFDYWGQGTLVTVSSASTKGPSVFPLAPSSKSTSGGTAALGCLVKDYFPEPVTVSWNSGALTSGVHTFPAVLQSSGLYSLSSVVTVPSSSLGTQTYICNVNHKPSNTKVDKKVEPKSCDKTHTCPPCPAPEYQWGPMVFLFPPKPKDTLMISRTPEVTCVVVDVSDEEPEVKFNWYVDGVEVHNAKTKPREEQYNATYRVVSVLTVLHQDWLNGKEYKCKVSNKALPAPIEKTISKAKGQPREPQVCTLPPSRDELTKNQVSLWCLVKGFYPSDIAVEWESNGQPENNYKTTPPVLDSDGSFFLYSKLTVDKSRWQQGNVFSCSVMHEALHNHYTQKSLSLSP
heavy 2: QDQLVQSGAEVKKPGASVKVSCKASGFNIKDTYIQWVRQAPGQGLEWMGRIDPLRKQTKYREKFEGRVTITADTSTNTAYMELSSLRSEDTAVYYCVRSGREFDYWGQGTLVTVSSASTKGPSVFPLAPSSKSTSGGTAALGCLVKDYFPEPVTVSWNSGALTSGVHTFPAVLQSSGLYSLSSVVTVPSSSLGTQTYICNVNHKPSNTKVDKKVEPKSCDKTHTCPPCPAPELLGGPSVFLFPPKPKDTLMISRTPEVTCVVVDVSHEEPEVKFNWYVDGVEVHNAKTKPREEQYNSTYRVVSVLTVLHQDWLNGKEYKCKVSNDALPFPIEETISKAKGQPREPQVYTLPPSRCELTKNQVSLSCAVKGFYPSDIAVEWESNGQPENNYKTTPPVLDSDGSFFLVSKLTVDKSRWQQGNVFSCSVMHEALHNHYTQKSLSLSP
light: DIQMTQSPSSLSASVGDRVTITCRASQDIHKYIAWYQQKPGQAPRLLIQYTSTLQPGVPSRFSGSGSGTDYTFTISSLQPEDIATYYCLQYEQLRTFGGGTKVEIKRTVAAPSVFIFPPSDEQLKSGTASVVCLLNNFYPREAKVQWKVDNALQSGNSQESVTEQDSKDSTYSLSSTLTLSKADYEKHKVYACEVTHQGLSSPVTKSFNRGEC

How the values were obtained:
FcgRIIIaF [1] = molecular target: T4, FcgRIIIaF (human, UniProt P08637 17-208); test: SPR (Biacore), antibody captured, FcgR extracellular domain as analyte
T4 construct: extracellular domain; Polymorphic site after J. Clin. Invest; also called FcγRIIIa F; 3aF; not shown: His tag at the C terminus
T4 sequence (P08637 17-208): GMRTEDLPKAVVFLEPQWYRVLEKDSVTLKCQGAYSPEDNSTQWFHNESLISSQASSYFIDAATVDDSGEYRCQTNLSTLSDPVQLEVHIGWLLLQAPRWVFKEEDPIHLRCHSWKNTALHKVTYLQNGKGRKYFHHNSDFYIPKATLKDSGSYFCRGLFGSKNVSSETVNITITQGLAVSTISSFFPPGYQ
Protocol: (§1) Next, the amino acid at position 330 was examined. The A330M alteration has been introduced into H240-Hl076 of H240-Kn125/H240-Hl076/L73-k0. […] L73-k0 was used as the common antibody L chain. Binding of the produced variants to FcgRIa, FcgRIIaR, FcgRIIaH, FcgRIIb, FcgRIIIaF, and FcgRIIIaV was measured according to the method of Reference Example 8.
(§2) Analysis of interaction between objective antibody and the FcγR was carried out using Biacore T100 (GE Healthcare), Biacore T200, Biacore A100, and Biacore 4000. HBS-EP+ (GE Healthcare) was used as the running buffer, and the measurement temperature was set to 25° C. Chips produced by immobilizing the antigen peptide by the amine coupling method to a Series S sensor Chip CM5 (GE Healthcare), chips produced by allowing preliminarily biotinylated antigen peptides to interact with and immobilize onto a Series S Sensor Chip SA (certified) (GE Healthcare), chips produced by immobilizing Protein L (ACTIGEN, BioVision) to Series S Sencor Chip CM5 (GE Healthcare), or chips produced by immobilizing Protein A/G (Thermo Scientific) to Series S Sencor Chip CM5 (GE Healthcare) were used. Antibodies of interest were captured onto these chips, and allowed to interact to each FcγR diluted with running buffer. To regenerate and repeatedly use the chip, the antibodies captured onto the chip were washed off by reacting 10 mM glycine-HCl, pH 1.5.

FcgRIIIaV [2] = molecular target: T5, FcgRIIIaV (human, UniProt P08637 17-208); test: as above
T5 construct: extracellular domain; Polymorphic site after J. Clin. Invest; also called FcγRIIIa V; 3aV; not shown: His tag at the C terminus
T5 sequence (P08637 17-208 F176V limits assumed): as the sequence (P08637 17-208) above, with F160V counted along it
Protocol: as §1, §2

FcgRIIaR [3] = molecular target: T1, FcgRIIaR; test: as above
Protocol: as §1, §2

FcgRIIb [4] = molecular target: T2, FcgRIIb; test: as above
Protocol: as §1, §2

FcgRIa = molecular target: T6, FcgRIa (human, UniProt P12314 16-292); test: as above
T6 construct: extracellular domain; also called FcγRIa; FcγRI; not shown: His tag at the C terminus
T6 sequence (P12314 16-292): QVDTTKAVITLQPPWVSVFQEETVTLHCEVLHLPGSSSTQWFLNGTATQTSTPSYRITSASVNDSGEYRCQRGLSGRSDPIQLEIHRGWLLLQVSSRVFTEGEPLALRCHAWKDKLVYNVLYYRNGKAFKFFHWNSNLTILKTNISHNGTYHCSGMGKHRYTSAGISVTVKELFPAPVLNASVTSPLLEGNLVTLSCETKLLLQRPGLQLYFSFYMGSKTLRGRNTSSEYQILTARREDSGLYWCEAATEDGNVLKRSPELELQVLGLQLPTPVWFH
Protocol: as §1, §2

FcgRIIaH [5] = molecular target: T3, FcgRIIaH; test: as above
Protocol: as §1, §2

FcgRIIIaF [6] = molecular target: T4, FcgRIIIaF; test: SPR (Biacore); KD of H240-Kn033/H240-Hl033/L73-k0 divided by KD of the variant
FcgRIIIaV [7] = molecular target: T5, FcgRIIIaV; test: as above
FcgRIIaR [8] = molecular target: T1, FcgRIIaR; test: as above
FcgRIIb [9] = molecular target: T2, FcgRIIb; test: as above
FcgRIIaH [10] = molecular target: T3, FcgRIIaH; test: as above

| Binder | Kd (FcgRIIIaF [1]) [nM] | Kd (FcgRIIIaV [2]) [nM] | Kd (FcgRIIaR [3]) [nM] | Kd (FcgRIIb [4]) [nM] | Kd (FcgRIa) [nM] | Kd (FcgRIIaH [5]) [nM] | fold 3aF (FcgRIIIaF [6]) [fold] | fold 3aV (FcgRIIIaV [7]) [fold] | fold 2aR (FcgRIIaR [8]) [fold] | fold 2b (FcgRIIb [9]) [fold] | fold 2aH (FcgRIIaH [10]) [fold] |
| --- | --- | --- | --- | --- | --- | --- | --- | --- | --- | --- | --- |
| B1 | 4.1 | 0.48 | 650 | 6900 | 0.065 | 150 | 70.7 | 100 | 1.1 | 0.5 | 3.5 |
| B2 | 1.6 | 0.38 | 450 | 4400 | 0.08 | 150 | 181 | 126 | 1.6 | 0.8 | 3.5 |
